As usually defined, the Km is the concentration of substrate that gives half-maximal velocity.

The source of these data is US8323941B2, “Histone demethylation mediated by the nuclear amine oxidase homolog LSD1” (President and Fellows of Harvard College, priority 2004, dated 2012).

One test deals with LSD1 target genes. Put plainly: RT-PCR of LSD1 target genes / mRNA in HeLa cells. It counts as cell-based, human. The settings on record: TSA treatment. An excerpt:
RT-PCR. Total RNA samples were isolated from 2×10^6 cells by Trizol reagent (Sigma). After DNase treatment, the RNA samples were purified by phenol-chloroform extraction and ethanol precipitation. 38 PCR cycles were used for SCN1A, SCN2A, SCN3A and M4 AchR and 28 PCR cycles for GAPDH. Primers used in RT-PCR were as follows: SCN1A up (5′-[…]-3′; SEQ ID NO: 1), down (5′-[…]-3′; SEQ ID NO: 2); SCN2A up (5′-[…]-3′; SEQ ID NO: 3), down (5′-[…]-3′; SEQ ID NO: 4) SCN3A up (5′-[…]-3′; SEQ ID NO: 5), down (5′-[…]-3′; SEQ ID NO: 6); p57^KIP2 up (5′-[…]-3′; SEQ ID NO: 7), down (5′-[…]-3′; SEQ ID NO: 8); GAPDH up (5′-[…]-3′; SEQ ID NO: 9), down (5′-[…]-3′; SEQ ID NO: 10).
(§1) Knockdown LSD, CoREST and Proteasome inhibitor (PI) treatment. Stable cell lines which express mutant GFP-shRNA, CtBP-shRNA, LSD1-shRNA or CoREST-shRNA were generated as previously described (Shi et al., 2003; Sui et al., 2002). To prevent proteasome-mediated protein degradation, the cells were treated with ZL3VS at final concentration 10 μM for 24 hours in culture then harvested. The protein and mRNA levels of the shRNA-knockdown cells with or without PI treatment were estimated by Western blotting and RT-PCR as previously described (Shi et al., 2004).

For test [1], the target named is LSD1 (Homo sapiens, UniProt O60341). Put plainly: LSD1 demethylation assay on nucleosomal substrates (mononucleosomes), Western blotting. It counts as biochemical. On the set-up: Full length (1-851aa) and C-terminal deleted (1-427 aa) human LSD1 cDNAs; 6xHis (N); made in house; host or cells: bacteria. The settings on record: for stimulation of LSD1 demethylation activity: CoREST deletion mutants. The protocol:
Preparation of mononucleosome. Mononucleosome was made according to a standard protocol (Tagami et al., 2004; Utley et al., 1996). Briefly, nuclear pellet from both TSA-treated or non-treated HeLa cells was homogenized for 60 times with type A pestle to obtain oligo-nucleosomes. The oligo-nucleosomes were then digested with micrococcal nuclease (40 units/mL) for 10 mins at 30° C. The nuclease is inactivated by 5 mM EDTA. Digested materials were spun at 14000 rpm for 3 mins. Resulting supernatant was spun again for additional 3 mins at the same speed. Supernatant from the second spin was subject to 10-25% glycerol gradient sedimentation. The monocleosome-containing fractions were identified by examining aliquots of fractions (treated with proteinase K) on DNA agarose gel. An aliquot of TSA-treated or non TSA-treated mononucleosome, a kind gift from Dr. Yoshihiro Nakatani's Lab in Dana Faber Cancer Institute, Harvard Medical School (Tagami et al., 2004), was used here as a control for the quality of mononucleosome made in our lab.
Demethylation assay. LSD1 demethylation activity on free histone or nucleosomal histone was carried out as previously reported (Shi et al., 2004). Briefly, bulk histones or mononucleosomes were incubated with purified His-LSD1 with or without purified His-CoREST, His-CoREST mutants, His-BHC80 and/or GST-HDAC1 in the histone demethylase activity (HDM) assay buffer (50 mM Tris pH8.5, 50 mM KCl, 5 mM MgCl, 0.5% BSA and 5% glycerol) from 10 mins up to 1 hour at 37° C. The demethylase activity of LSD1 under various conditions was evaluated by Western blotting using K4-H3 methylation-specific antibodies.

For a further test, the system named is SCN2A. The settings on record: Rat-1 fibroblast cells, TSA treatment; cited from earlier work.
The target in test [2] is T1, HIS-LSD1 (Homo sapiens, UniProt O60341). Briefly: Demethylation-FDH coupled spectrophotometric assay (formaldehyde formation). Format: biochemical. On the set-up: Full length (1-851aa) and C-terminal deleted (1-427 aa) human LSD1 cDNAs; 6xHis (N); made in house. The settings on record: for formaldehyde production (absorbance at OD 340 nm): peptide used as substrate of HIS-LSD1. An excerpt: We used a third independent method to investigate the possibility that LSD1 is a histone demethylase. […] To determine whether formaldehyde was produced in LSD1-mediated enzymatic reactions, we first used the formaldehyde dehydrogenase (FDH) assay to detect the presence of formaldehyde (Lizcano et al., 2000). This assay employs formaldehyde dehydrogenase to convert formaldehyde to formic acid using NAD^+ as the electron acceptor, whose reduction to NADH can be spectrophotometrically measured at OD 340 nm. Thus, when the demethylation reaction is coupled with the FDH assay, the enzymatic activity of LSD1 and reaction kinetics can be determined by measuring the production of NADH. A standard curve was first generated using purified FDH (EC 1.2.1.46), NAD^+ and different concentrations of formaldehyde ranging from 1 μM to 10 mM, within which a linear relationship was found between the production of NADH and the range of formaldehyde used in the assay. Subsequently, the coupled demethylation-FDH assays were carried out within this linear range and were initiated with the addition of the diMeK4H3 substrates. The continuous production of the formaldehyde as the demethylation proceeded was monitored by OD measurement at 340 nm at different time points. […] We next used the demethylation-FDH coupled spectrophotometric assay as another independent means to investigate the substrate specificity of LSD1.
Formaldehyde Dehydrogenase (FDH) assay. Formaldehyde formation was continuously monitored by a coupled spectrophotometric assay (Lizcano et al., 2000) using formaldehyde dehydrogenase (FDH). […] The absorbance at 340 nm (ε340=6.22 mM^−1 cm^−1 for NADH) was measured at each time point in a 0.5 min interval using Beckman DU640 spectrophotometer. The OD 340 nm absorbance at the moment of the substrate addition was considered as 0 and this was used as the 0 min time point. Over a 10 min period, a kinetic software program automatically recorded the absorbance at each time point. The data were analyzed using the Excel program. […]

The target of test [3] is T1, HIS-LSD1. Briefly: Demethylase assay on histone H3 peptides, Western blotting with methyl-specific antibodies. The settings on record: 1 μg LSD1, 1 nmole peptide; modification-specific antibody. It counts as biochemical. Also on record: Full length (1-851aa) and C-terminal deleted (1-427 aa) human LSD1 cDNAs; 6xHis (N); made in house; host or cells: bacteria (IPTG induction). An excerpt:
LSD1 is a flavin-containing protein based on its ability to bind FAD ((Humphrey et al., 2001), and data not shown). Its sequence homology with amine oxidases predicts that LSD1 may catalyze oxidation reactions of biogenic amines including monoamine, polyamines or N-methylated protein substrates (such as histones) (Bannister et al., 2002). Amine oxidation catalyzed by flavin-containing amine oxidase is characterized by oxidative cleavage of the a-carbon bond of the substrate to form an imine intermiediate, which, in turn, is hydrolyzed to form an aldehyde and amine via a non-enzymatic process. In a complete catalytic cycle, the cofactor FAD is reduced to FADH2 and then is likely to be re-oxidized by oxygen to produce hydrogen peroxide (Binda et al., 2002). […] The HIS-LSD1 proteins were incubated with histone H3 peptides carrying dimethylated K4 (diMeK4H3) or K9 (diMeK9H3) and the methylation status was determined using a diMeK4H3 or diMeK9H3 specific antibody, respectively. […]
Demethylase assay. […] The reaction mixture was analyzed by SDS-PAGE/Western blotting using methyl-specific antibodies, or by formaldehyde formation assay to examine the removal and conversion of the methyl group to formaldehyde, or by mass spectrometry to identify the demethylated peptide.
For orientation: Immunoblotting shows a protein as a band on a membrane.

A further test concerns the target T2, GST-LSD1 (Homo sapiens, UniProt O60341).
T2 construct: made in house; host or cells: bacteria (inferred from 'similar procedure' to the His-tagged proteins)
Put plainly: GST pulldown of HIS-tagged CoREST and mutants. The settings on record: Coomassie Blue staining. It counts as binding. As for the experimental part: To identify domains of CoREST that are involved in physical interactions with LSD1, GST-LSD1 or GST was incubated with bacterially purified, HIS-tagged CoREST and its mutant derivatives. […] This places the putative LSD1-binding domain within the C-terminal functional domain of CoREST, somewhere between aa 293-381 of CoREST. […] We therefore speculate that the SANT2 domain may be involved in mediate binding to the nucleosomal substrate. Taken together, these findings are consistent with the idea that CoREST functions as a bridging protein. The weak stimulatory activity of the N-terminal CoREST (del1, aa 1-293) remains unclear at the present time.
GST and GSTLSD1 plamsids were kind gifts from Dr. Tadashi Baba's Lab in Japan (Iwase et al., 2004). Expression and purification of GST and GSTLSD1 proteins were done using similar procedure as outlined for purification of his-tagged recombinant proteins. For GST-bead pulldown experiment, 2 μg of each purified his-tagged wt or del CoREST proteins were incubated with 5 μg of bound GST and GSTLSD1 proteins at 4° C. for 4 hrs in a binding buffer (50 mM Tris, pH 8.0, 300 mM NaCl, 1 mM DTT, 0.5 mM EDTA and 0.1% NP-40). The beads were washed 3 times in the binding buffer, resuspended in 2×SDS protein sample buffer, boiled for 5 mins and loaded onto 15% SDS PAGE gel. The gel was then stained with Coomassie Blue.

Test [4] deals with LSD1. Put plainly: LSD1 protein level in knockdown cells (immunostaining, Western blotting). Format: cell-based, human. The settings on record: CoREST shRNA treated cells; 10 μM for 24 hours. The protocol: as §1

As to `CC(/C=C/C(=O)NO)=C\[C@@H](C)C(=O)c1ccc(N(C)C)cc1` [TSA, Trichostatin A], the “expression of LSD1 target genes SCNA2 and SCNA3” value in the test on LSD1 target genes was “de-repression”. Besides, at LSD1 [1] (hyperacetylated nucleosomes isolated from TSA-treated HeLa cells, less susceptible), the “difference in CoREST/LSD1-mediated demethylation, untreated vs TSA-treated nucleosomes” value is “approximately 4 fold”. For the same molecule, the SCN2A expression result in the test on SCN2A is given as “unaffected”.
Regarding “diMeK9H3: Synthetic histone H3 peptide (1-21aa) carrying dimethylated K9”, in the test with HIS-LSD1 [2], the “formaldehyde production (absorbance at OD 340 nm)” value is recorded as “not”. Also, the “dimethylation level of H3 peptide after incubation with LSD1” value with HIS-LSD1 [3] is “failed to reduce the dimethylation level at K9”.
Take “del 5: CoREST deletion mutant aa 293-381”: in the test with GST-LSD1, the “binding to LSD1” value is “bound LSD1”. The “stimulation of LSD1 demethylation activity” value in the test with LSD1 [1] is “fail to stimulate its activity”.
Turning to `CC(C)C[C@@H](/C=C/S(C)(=O)=O)NC(=O)[C@H](CC(C)C)NC(=O)[C@H](CC(C)C)NC(=O)OCc1ccccc1` [ZL3VS], the “LSD1 steady state level” value with LSD1 [4] is reported as “restored the LSD1 steady state level”.
In the case of “del 3: CoREST deletion mutant aa 105-381”, the “binding to LSD1” value with GST-LSD1 is on record as “bound LSD1”. In the test with LSD1 [1], the “stimulation of LSD1 demethylation activity” value is “fail to stimulate its activity”.
“diMeK4H3: Synthetic histone H3 peptide (1-21 aa) carrying dimethylated K4”: the “formaldehyde production (absorbance at OD 340 nm)” value with HIS-LSD1 [2] is “robust increase”. Moreover, the Km with HIS-LSD1 [2] (purified HIS-LSD1, Lineweaver-Burk transformation, read-out: apparent Km for the diMeK4H3 substrates) is roughly 30 µM. Also, the “dimethylation level of H3 peptide after incubation with LSD1” value with HIS-LSD1 [3] is on record as “effectively reduced dimethylation level at K4”.
For “HDAC1: Bacterially purified histone deacetylase 1”, the “effect of added protein on ability of recombinant LSD1 to demethylate nucleosomal substrates” value with LSD1 [1] (bacterially purified protein added to recombinant LSD1) is “no effect”.
